How the values were obtained:
[1] = Determination of radiotracer lipophilicity (logD, phosphate buffer/1-octanol); assay type: physicochemical; settings: phosphate buffer (0.05 M, pH 7.4) / 1-octanol, six independent experiments
Experimental: Determination of radiotracer lipophilicity. The heterobivalent ligands (22–26) as well as the monomeric reference compounds (27 and 28) were radiolabeled with ^68Ga as described before and 2 µL of the product solution (~65 pmol of the respective radioligand) were added to a mixture of phosphate buffer (0.05 M, pH 7.4, 800 µL) and 1-octanol (800 µL) and incubated for 5 min at ambient temperature under vigorous shaking. Both phases were separated by centrifugation and 100 µL of each phase were measured for radioactivity in a gamma-counter. […] (cpm = counts per minute), cpmw = activity in the aqueous phase [cpm]. These experiments were performed six times independently.

T-47D cells = assay: In vitro cell uptake (internalization) study in T-47D cells; assay type: cell-based, human; settings: after 4 h, % of total added activity
Experimental: Cell culture. All cell lines were grown in suitable culture medium at 37 °C in a humidified CO2 (5%) atmosphere. The human breast cancer cell lines T-47D, MDA-MB-231 and MCF-7 were grown in Dulbecco’s Modified Eagle Medium (DMEM), supplemented with 10% (v/v) fetal calf serum (FCS) and 1% (v/v) L-Glutamine. For a high expression of the NPY(Y1) receptor on T-47D cells, the medium for this cell line was further supplemented with 0.15% (w/v) β-estradiol. The BT-474 and PC-3 cell lines were grown in RPMI-1640 medium, also supplemented with 10% (v/v) fetal calf serum (FCS) and 1% (v/v) L-Glutamine.
Internalization studies. Cells (T-47D, MDA-MB-231, MCF-7, BT-474 and PC-3, 1.5 × 10^6 cells per well) were seeded into 6-well plates and incubated overnight at 37 °C in a humidified CO2 (5%) atmosphere. The next day, the medium was removed and the cells were washed twice with the respective medium without supplements (ice-cold, 1 mL) and incubated with 3.7–4.0 kBq (0.37–4.0 pmol) of the respective ^68Ga-radiolabeled ligand [^68Ga]22−[^68Ga]26, [^68Ga]27 or [^68Ga]28 (in 1.5 mL medium, containing 0.5% (w/v) BSA) for defined time-points of 1, 2, 3 or 4 h at 37 °C in a humidified CO2 (5%) atmosphere. A 1000-fold excess of the respective peptide (3 or 4) was used for blocking to determine the non-specific cell uptake. At each time point, the medium was removed and the cells were washed twice with the respective medium without supplements (ice-cold, 1 mL). Cells were treated twice with 1 mL glycine buffer (ice-cold, 50 mM glycine, 100 mM NaCl, pH 2.8) for 5 min at room temperature, followed by 2 mL NaOH solution (1 M) for 10 min at 37 °C. The supernatants were collected and the radioactivity measured in a gamma counter. The internalized and surface bound activity was expressed as percentage of measured to total added activity. Each data point was generated thrice in triplicates.

With `CCCC[C@H](NC(=O)[C@H](CCCNC(=N)N)NC(=O)[C@H](Cc1c[nH]c2ccccc12)NC(=O)[C@H](CCCCNC(=O)CON=Cc1ccc(C(=O)NC2CCN(CC(=O)NC3CCN(CC(=O)NCCCN(CCCNC(=O)CN4CCC(NC(=O)CN5CCC(NC(=O)c6ccc(C=NOCC(=O)NCCOCCOCCOCCOCCC(=O)N[C@@H](CCC(N)=O)C(=O)N[C@@H](Cc7c[nH]c8ccccc78)C(=O)N[C@@H](C)C(=O)N[C@H](C(=O)NCC(=O)N[C@@H](Cc7c[nH]cn7)C(=O)N[C@@H](CC(C)C)C(=O)N[C@@H](CCSC)C(N)=O)C(C)C)cc6)CC5)CC4)CC(=O)NCCOCCOCCOCCOCCC(=O)N[C@@H](CCCCNC(=O)CCC(C(=O)O)N4CCN(CC(=O)O)CCN(CC(=O)O)CC4)C(N)=O)CC3)CC2)cc1)NC(=O)[C@@H]1CCCN1C(=O)[C@H](CC(N)=O)NC(=O)[C@@H](N)[C@@H](C)CC)C(=O)N[C@@H](CCCNC(=N)N)C(=O)N[C@@H](Cc1ccc(O)cc1)C(N)=O` (some centres unmarked) [[^68Ga]26, metal not drawn] the logD [1] was -1.52 ± 0.089 and the specific cell uptake (T-47D cells) was 46.4 ± 2.4%.

— article PMC6161111, “Design, Synthesis, In Vitro, and Initial In Vivo Evaluation of Heterobivalent Peptidic Ligands Targeting Both NPY(Y1)- and GRP-Receptors—An Improvement for Breast Cancer Imaging?” (Pharmaceuticals, 2018)
